{
  "source": "paper PMC6356969",
  "about": "“Cytosolic Isocitrate Dehydrogenase from Arabidopsis thaliana Is Regulated by Glutathionylation” (Antioxidants, 2019)",
  "key": {"[1]": {"molecular_target": "T1, cICDH (cytosolic NADP-ICDH, At1g65930) (Arabidopsis thaliana, UniProt Q9SRZ6)", "T1 construct": "~90 kDa non-covalent dimer", "experiment": "residual activity after preincubation; LC-MS/MS of glutathionylated peptide; biotin switch", "assay_type": "biochemical", "conditions": "15 min at 25 °C before assay; covalent, S-glutathionylation of Cys363 and S-nitrosylation"}, "[2]": {"molecular_target": "T2, cICDH (cytosolic NADP-ICDH, At1g65930) (Arabidopsis thaliana, UniProt Q9SRZ6, C363S)", "T2 construct": "~90 kDa non-covalent dimer", "experiment": "residual activity after preincubation, NADPH at […] nm", "assay_type": "biochemical", "conditions": "1 mM GSNO preincubation, 25 °C; covalent"}, "[3]": {"molecular_target": "the molecule itself", "experiment": "SEC; Superose 12 column, ~10 ug His-ICDH, 50 mM Tris pH 7.5, 5 mM MgCl2, 150 mM NaCl; standards aldolase 158 kDa, conalbumin 75 kDa, ovalbumin 43 kDa; eluted at ~90 kDa against a 48.3 kDa monomer"}, "[4]": {"substrate": "O=C(O)CC(C(=O)O)C(O)C(=O)O", "experiment": "purified protein", "assay_type": "biochemical, Arabidopsis thaliana", "conditions": "250 µM NADP+, 5 mM MgCl2, 100 mM potassium phosphate pH 7.5, 25 °C, DL-isocitric acid varied 0-5 mM"}, "[5]": {"substrate": "NC(=O)c1ccc[n+]([C@@H]2O[C@H](COP(=O)(O)OP(=O)(O)OC[C@H]3O[C@@H](n4cnc5c(N)ncnc54)[C@H](OP(=O)(O)O)[C@@H]3O)[C@@H](O)[C@H]2O)c1", "experiment": "purified protein", "assay_type": "biochemical, Arabidopsis thaliana", "conditions": "NADP+ varied 0-1 mM, DL-isocitric acid as co-substrate, 5 mM MgCl2, 100 mM potassium phosphate pH 7.5, 25 °C"}, "[6]": {"conditions": "Table 1 labels the mutant C297S, text and methods say C363S"}},
  "data": [
    {"molecule": "N[C@@H](CCC(=O)N[C@@H](CSN=O)C(=O)NCC(=O)O)C(=O)O", "note": "[GSNO]", "values": [
      {"measurement": "activity at increasing GSNO", "setting": "[1]", "value": "both increasing concentrations of GSNO and GSSG progressively inhibited the cICDH activity"},
      {"measurement": "activity after 1 mM GSNO", "setting": "[2]", "value": "cICDH C363S was found to be less affected by GSNO treatment than the wild-type enzyme"}
    ]},
    {"molecule": "cytosolic NADP-dependent isocitrate dehydrogenase (cICDH), recombinant His-tagged (enzyme, Arabidopsis thaliana, UniProt Q9SRZ6 1-410, looked up, cytosolic NADP-dependent isocitrate dehydrogenase, Arabidopsis thaliana, At1g65930; predicted mass 48.3 kDa including the N-terminal His-tag; also called His-ICDH; His-cICDH; source: E. coli BL21, purified (Ni2+-Sepharose); not shown: His-tag, N-terminal, kept) MAFEKIKVANPIVEMDGDEMTRVIWKSIKDKLITPFVELDIKYFDLGLPHRDATDDKVTIESAEATKKYNVAIKCATITPDEGRVTEFGLKQMWRSPNGTIRNILNGTVFREPIICKNVPKLVPGWTKPICIGRHAFGDQYRATDAVIKGPGKLTMTFEGKDGKTETEVFTFTGEGGVAMAMYNTDESIRAFADASMNTAYEKKWPLYLSTKNTILKKYDGRFKDIFQEVYEASWKSKYDAAGIWYEHRLIDDMVAYALKSEGGYVWACKNYDGDVQSDFLAQGFGSLGLMTSVLVCPDGKTIEAEAAHGTVTRHFRVHQKGGETSTNSIASIFAWTRGLAHRAKLDDNAKLLDFTEKLEAACVGTVESGKMTKDLALIIHGSKLSRDTYLNTEEFIDAVAAELKERLNA", "values": [
      {"measurement": "stoichiometry N", "setting": "[3]", "value": 2},
      {"measurement": "Km", "setting": "[4]", "value": 99, "unit": "µM"},
      {"measurement": "kcat", "setting": "[4]", "value": 4.93, "unit": "s⁻¹"},
      {"measurement": "kcat/Km", "setting": "[4]", "value": 49700, "unit": "M⁻¹ s⁻¹"},
      {"measurement": "Km", "setting": "[5]", "value": 28, "unit": "µM"},
      {"measurement": "kcat", "setting": "[5]", "value": 5.81, "unit": "s⁻¹"}
    ]},
    {"molecule": "cICDH (cytosolic NADP-ICDH, At1g65930) (Arabidopsis thaliana; C363S) (protein, ~90 kDa non-covalent dimer) MAFEKIKVANPIVEMDGDEMTRVIWKSIKDKLITPFVELDIKYFDLGLPHRDATDDKVTIESAEATKKYNVAIKCATITPDEGRVTEFGLKQMWRSPNGTIRNILNGTVFREPIICKNVPKLVPGWTKPICIGRHAFGDQYRATDAVIKGPGKLTMTFEGKDGKTETEVFTFTGEGGVAMAMYNTDESIRAFADASMNTAYEKKWPLYLSTKNTILKKYDGRFKDIFQEVYEASWKSKYDAAGIWYEHRLIDDMVAYALKSEGGYVWACKNYDGDVQSDFLAQGFGSLGLMTSVLVCPDGKTIEAEAAHGTVTRHFRVHQKGGETSTNSIASIFAWTRGLAHRAKLDDNAKLLDFTEKLEAASVGTVESGKMTKDLALIIHGSKLSRDTYLNTEEFIDAVAAELKERLNA", "values": [
      {"measurement": "Km", "setting": "[4]; [6]", "value": 95, "unit": "µM"},
      {"measurement": "kcat", "setting": "[4]; [6]", "value": 4.31, "unit": "s⁻¹"}
    ]}
  ]
}
